Kd and IC50 data for four sequences are collected here from the Immune Epitope Database (IEDB).

Some results are limits rather than exact numbers.

In one experiment the target is HLA-A*68:23. Kind of experiment: IEDB peptide-MHC binding, purified MHC/competitive/fluorescence; filed as Kd, often an IC50 or EC50 that approximates it; ≥ and ≤ were set here for values at or beyond the usual limits of such assays. As to conditions: source organism: Homo sapiens.
Another experiment addresses HLA-B*15:42. The experiment is described as above. To be noted: source organism: Homo sapiens.
The target of the next experiment is HLA-B*45:06. The experiment is described as above. To be noted: source organism: Homo sapiens.
Another experiment deals with HLA-B*83:01. Described as above. As to conditions: source organism: Homo sapiens.
The target in the next experiment is HLA-B*53:01. In words: IEDB peptide-MHC binding, purified MHC/competitive/fluorescence; ≥ and ≤ were set here for values at or beyond the usual limits of such assays. As to conditions: source organism: Human herpesvirus 4 type 2.
Experiment [1] has as its target HLA-A*02:01. In words: IEDB peptide-MHC binding, purified MHC/competitive/fluorescence; filed as Kd, often an IC50 or EC50 that approximates it; ≥ and ≤ were set here for values at or beyond the usual limits of such assays. To be noted: source organism: Vibrio vulnificus YJ016.
The next experiment concerns the target HLA-A*02:03. The experiment is described as above. As to conditions: source organism: Vibrio vulnificus YJ016.
The target of the next experiment is HLA-A*02:12. The experiment is described as above. To be noted: source organism: Vibrio vulnificus YJ016.
Another experiment deals with HLA-A*02:19. Described as above. As to conditions: source organism: Vibrio vulnificus YJ016.
The next experiment deals with HLA-A*03:01. Described as above. As to conditions: source organism: Vibrio vulnificus YJ016.
The next experiment has as its target HLA-A*23:01. The experiment is described as above. As to conditions: source organism: Vibrio vulnificus YJ016.
The next experiment concerns the target HLA-A*24:03. The experiment is described as above. To be noted: source organism: Vibrio vulnificus YJ016.
For the next experiment, the target named is HLA-A*26:01. The description is as above. As to conditions: source organism: Vibrio vulnificus YJ016.
In another experiment the target is HLA-A*29:02. Described as above. To be noted: source organism: Vibrio vulnificus YJ016.
The target in the next experiment is HLA-B*15:01. Described as above. As to conditions: source organism: Vibrio vulnificus YJ016.
The target of experiment [2] is HLA-B*18:01. The experiment is described as above. To be noted: source organism: Vibrio vulnificus YJ016.
Another experiment addresses HLA-B*27:03. The experiment is described as above. As to conditions: source organism: Vibrio vulnificus YJ016.
For experiment [3], the target named is HLA-B*39:01. The description is as above. To be noted: source organism: Vibrio vulnificus YJ016.
Another experiment concerns the target HLA-B*46:01. The description is as above. As to conditions: source organism: Vibrio vulnificus YJ016.
Another experiment concerns the target HLA-B*51:01. The description is as above. To be noted: source organism: Vibrio vulnificus YJ016.
Experiment [4] deals with HLA-B*57:01. Described as above. As to conditions: source organism: Vibrio vulnificus YJ016.
Another experiment has as its target HLA-A*01:01. In words: IEDB peptide-MHC binding, purified MHC/direct/fluorescence; filed as Kd, often an IC50 or EC50 that approximates it; ≥ and ≤ were set here for values at or beyond the usual limits of such assays. As to conditions: source organism: Giardia lamblia ATCC 50803.
Experiment [5] addresses HLA-A*02:01. Described as above. To be noted: source organism: Giardia lamblia ATCC 50803.
In another experiment the target is HLA-A*11:01. The experiment is described as above. To be noted: source organism: Giardia lamblia ATCC 50803.
The next experiment addresses HLA-A*26:02. Described as above. As to conditions: source organism: Giardia lamblia ATCC 50803.
The target of another experiment is HLA-A*26:03. The experiment is described as above. As to conditions: source organism: Giardia lamblia ATCC 50803.
Another experiment has as its target HLA-A*31:01. The description is as above. As to conditions: source organism: Giardia lamblia ATCC 50803.
Another experiment concerns the target HLA-A*68:02. Described as above. As to conditions: source organism: Giardia lamblia ATCC 50803.
For a further experiment, the target named is HLA-A*69:01. The experiment is described as above. To be noted: source organism: Giardia lamblia ATCC 50803.
In the next experiment the target is HLA-B*07:02. Described as above. To be noted: source organism: Giardia lamblia ATCC 50803.
Another experiment has as its target HLA-B*08:01. The experiment is described as above. As to conditions: source organism: Giardia lamblia ATCC 50803.
Another experiment addresses HLA-B*08:02. The experiment is described as above. As to conditions: source organism: Giardia lamblia ATCC 50803.
The target in the next experiment is HLA-B*08:03. The experiment is described as above. To be noted: source organism: Giardia lamblia ATCC 50803.
In a further experiment the target is HLA-B*15:17. The experiment is described as above. To be noted: source organism: Giardia lamblia ATCC 50803.
The target in experiment [6] is HLA-B*18:01. The description is as above. To be noted: source organism: Giardia lamblia ATCC 50803.
The target in another experiment is HLA-B*27:05. The experiment is described as above. As to conditions: source organism: Giardia lamblia ATCC 50803.
Experiment [7] deals with HLA-B*39:01. The experiment is described as above. As to conditions: source organism: Giardia lamblia ATCC 50803.
For a further experiment, the target named is HLA-B*40:01. The experiment is described as above. As to conditions: source organism: Giardia lamblia ATCC 50803.
The target of the next experiment is HLA-B*48:01. The experiment is described as above. As to conditions: source organism: Giardia lamblia ATCC 50803.
The target of experiment [8] is HLA-B*57:01. Described as above. To be noted: source organism: Giardia lamblia ATCC 50803.
For another experiment, the target named is HLA-B*58:01. The experiment is described as above. As to conditions: source organism: Giardia lamblia ATCC 50803.

As to KGPPAALTL, the Kd with HLA-A*68:23 is 0.946 µM; with HLA-B*15:42 it was no less than 5 µM; in the experiment with HLA-B*45:06, no less than 5 µM; in the experiment with HLA-B*83:01 it was 5.27 µM.

For TAYCPLQHW, the 50% inhibitory concentration (IC50) with HLA-B*53:01 stood at 0.0326 µM.

Take LTDEQKNAV: the Kd was no less than 20 µM in the experiment with HLA-A*02:01 [1]; no less than 20 µM with HLA-A*02:03; 0.856 µM with HLA-A*02:12; no less than 20 µM in the experiment with HLA-A*02:19; no less than 20 µM with HLA-A*03:01; no less than 20 µM with HLA-A*23:01. Besides, the Kd with HLA-A*24:03, in the experiment with HLA-A*26:01, in the experiment with HLA-A*29:02, with HLA-B*15:01, with HLA-B*18:01 [2] and with HLA-B*27:03 was no less than 20 µM throughout. The Kd in the experiment with HLA-B*39:01 [3], with HLA-B*46:01, with HLA-B*51:01 and with HLA-B*57:01 [4] was no less than 20 µM each time.

Take RENQVAVVR: the Kd with HLA-A*01:01, in the experiment with HLA-A*02:01 [5], in the experiment with HLA-A*11:01, in the experiment with HLA-A*26:02, with HLA-A*26:03 and with HLA-A*31:01 was no less than 20 µM each time. In addition, the Kd with HLA-A*68:02, in the experiment with HLA-A*69:01, with HLA-B*07:02, with HLA-B*08:01, with HLA-B*08:02 and with HLA-B*08:03 was no less than 20 µM throughout. The Kd with HLA-B*15:17, in the experiment with HLA-B*18:01 [6], with HLA-B*27:05, with HLA-B*39:01 [7], with HLA-B*40:01 and with HLA-B*48:01 was no less than 20 µM throughout. The Kd with HLA-B*57:01 [8] and with HLA-B*58:01 was no less than 20 µM in each case.
